Patent publication US8092794B2, “Pharmaceutical compositions comprising SODs and prolamine based peptide fragments” (Isocell Pharma S.A., priority 2006, dated 2012)

Columns and labels:
[1] = NBT photoreduction on NATIVE-PAGE electrophoresis (anti-radical / antioxidant activity of SODs); assay type: biochemical; conditions: currently used bacterial host strains, rare codons
Description: The expression products of the first variants for each kind of constructions were used to validate the anti-radical activity of the various biosynthetic SODs obtained. These activities were verified by the reduction of NBT on native PAGE.
The melon pseudo cytosolic Cu—ZnSOD and the human or tomato cytosolic Cu—ZnSOD as well as their equivalents bearing the two different gliadin peptides are analysed for their antiradical activities. These activities are verified according to the NBT photoreduction on NATIVE-PAGE electrophoresis (Beauchamps and Fridovitch, 1971).
The Cucumis melo recombinant SOD as well as its equivalents bearing the gliadin peptide (Gli-SOD) were produced and purified according to a multiple step denaturation/renaturation protocol. […] The potentiality of both recombinant proteins (Cucumis melo SOD and Gli-SOD) to reduce NBT on NATIVE-PAGE electrophoresis (NBT photoreduction, Beauchamps and Fridovitch, 1971) was evaluated and compared with that of the natural Cucumis melo extract.
The migration profile and the NBT reduction obtained on Native-PAGE electrophoresis corroborate the correct and efficient refolding of both recombinant proteins, SOD or Gli-SOD (4 000-10 000 UNBT/mg protein) which is a mandatory event to display their antioxidant activity.

[2] = test system: HT-29 cell line; experiment: HT-29 cell proliferation (cell count, GUAVA PC Viacount); assay type: cell-based, human; conditions: for toxic effect on HT-29 proliferation curves: 10 units, sampled over 72 hours; for dose that does not modify growth of the HT-29 cell line: dose range 0 to 50 NBT units
Description: The human colon carcinoma cell line HT-29 (ATCC HTB-38) is grown in 10% foetal bovine serum (FBS) in Dulbecco's modified Eagle's medium (D-MEM) supplemented with GlutaMAX-1, 4.5 g/L D-Glucose, sodium pyruvate and 100 unit/ml of penicillin/streptomycin. For each experiment (n=4) approximately 2×10^4 cells/well were incubated for 24 hours at 37° C. in 5% CO2 atmosphere. Prior to any experiment, existing culture medium was replaced by a fresh one.
After the incubation period, cell monolayers were detached with a PBS solution containing 0.05% trypsin and 0.5 mM EDTA, washed in calcium-free and magnesium-free phosphate-buffered saline solution (PBS) and collected by centrifugation. Cells were then counted in a hemocytometer by using the GUAVA PC Viacount Flex Kit and reported in cells/ml to estimate cellular proliferation.
In the current experiment, cultures are periodically sampled over a 72 hour period to assess the proliferation rate and the viability of HT-29 cells after exposure or not to various components, (a) 10 μM of gliadin peptide 982 (Triticum vulgare, QQPYPQPF, SEQ. ID No. 01) representing at least 100 times less than the concentration previously related to induce a significant enterocyte agglutination (De Vicenzi. M et al. 1997 Toxicology, vol 120 p 207) or enterocyte apoptosis (Giovannini et al. 2000, Toxicology, vol 145 p 63).
For recombinant protein dose-response experiments, HT-29 cells were incubated with increasing concentrations of recombinant SOD or Gli-SOD (0 to 50 NBT units) for a further 48 hours.
Cultures were periodically sampled over 72 hours to assess the proliferation rate and the viability of HT-29 cells after exposure or not to various components, (a) 10 units of recombinant SOD or (b) 10 units of recombinant SOD associated with 10 μM of peptide 982 or finally (c) 10 units of recombinant Gli-SOD (SOD physically linked to gliadin peptide 982).

[3] = test system: foot oedema induced by carrageenan or adriamycin; conditions: cited from earlier work; for anti-inflammatory activity in rats: studies in rats
[4] = test system: HT-29 cells; experiment: Xanthine/xanthine oxidase (X/XO)-induced apoptosis of HT-29 cells, annexin V test; assay type: cell-based, human; conditions: 50 units, 10mU of X/XO complex
Description: (§1) Apoptosis was analyzed in HT-29 cell line using the GUAVA Nexin Kit which discriminates between apoptotic and non apoptotic cells. This method utilizes annexin V Phycoerythrin to detect phopshatidylserine (PS) (Martin et al. 1995, J Exp Med vol 182 p 1545) on the external membrane of apoptotic cells.
(§2) After 24 hours, cell monolayers are detached with a PBS solution containing trypsin 0.05% and EDTA 0.5 mM, washed in calcium-free and magnesium-free phosphate-buffered saline solution (PBS) and apoptotic cell staining is performed and analysed with a GUAVA PCA system.
In this third experiment, tests of the potent anti-apoptotic effect of the recombinant SOD or Gli-SOD according to the invention on the possible Fas/FasL pathway via Xanthine/xanthine oxidase induction in the HT-29 cells culture medium were carried out.
In this case, the rate of HT-29 cell going into apoptosis may be enhanced from 20% evaluated for the basal level to 30% by addition of 10mU of X/XO complex in the culture medium. Addition of 50 units of recombinant melon SOD or again 50 units of recombinant Gli-SOD to the culture medium, prevented the X/XO-induced apoptotic pathway in the HT-29 cells respectively by 71% and 86%.

[5] = test system: HT-29 cells; experiment: Orexin-induced apoptosis of HT-29 cells, annexin V test; assay type: cell-based, human; conditions: 50 units + 1 μM orexin; for rate of orexin-induced apoptosis: orexin alone 40%
Description: as §1, §2
(§3) For the basal apoptotic inhibition (part A), the culture medium was replaced with fresh culture medium containing or absent 10 units of both recombinant SODs (NBT units). For the Orexin induced-apoptotic inhibition (part B), the culture medium was replaced with fresh culture medium containing 1 μM of orexin and/or 50 units of each recombinant SOD (NBT units). Results are expressed as the percentage of apoptotic annexin V-PE positive cells and are the means of four points.
In a second experiment, the potent anti-apoptotic effect of the recombinant SOD or Gli-SOD was confirmed when apoptosis was induced via orexin supplementation to the HT-29 cells culture medium. In this case, the rate of HT-29 cell going into apoptosis may be enhanced from 20% evaluated for the basal level to 40% by addition of 1 μM of Orexin in the culture medium.

[6] = test system: HT-29 cells; experiment: Basal apoptosis of HT-29 cells, annexin V test (GUAVA Nexin Kit); assay type: cell-based, human; conditions: 10 units, 24 hours; for rate of basal apoptosis (annexin V positive cells): basal 20% (20.5)
Description: as §1, §2, §3

[7] = test system: HT-29 cells; experiment: Binding of SOD or Gli-SOD to HT-29 cells, FITC immunohistochemistry with EP-1669; assay type: cell-based, human; conditions: 50 units, 24 hours
Description: For each experiment (n=4), approximately 15×10^3 cells/lamella layer were incubated for 24 hours at 37° C. in 5% CO2 atmosphere. Prior to any experiment, existing culture medium was replaced by a fresh one.
The cell monolayer was then incubated in a fresh medium with or without 50 units of SOD or Gli-SOD for a further 24 hours, washed in calcium-free and magnesium-free phosphate-buffered saline solution (PBS) and then analyzed by immunohistochemistry. Binding of Gli-SOD to HT-29 cells was analyzed using the EP-1669 as a first antibody (rabbit IgG anti-SOD, dilution 1/2000°) for 30 minutes followed by a second FITC-coupled antibody for further 30 minutes (goat anti-rabbit antibody, dilution 1/100). This method was chosen rather than flow cytometry because the latter technique requires that cells be harvested by trypsin treatment and collected prior to analysis, and such treatment would likely have negatively impacted the interaction between the Gli-SOD molecules and cell surfaces.

Human CuZn-SOD: recombinant human cytosolic CuZn-SOD expressed in bacteria
activity of biosynthetic SOD expressed in the applicant's bacterial system [1]: functional

QQPYPQPQPF (Triticum vulgare) [peptide 982, 10 amino acids peptide of A-gliadin, Triticum vulgare]
effect on HT-29 cell line proliferation at 24 hours ([2]; 10 μM peptide, 24 hours of culture): a major effect on HT-29 cell line proliferation, but exclusively at 24 hours of culture | effect on HT-29 proliferation after 48 hours ([2]; 10 μM peptide, 48 hours): the proliferation returns to its basal level

homologous rat CuZn-SOD: rat CuZn superoxide dismutase
anti-inflammatory activity in rats [3]: no anti-inflammatory activity

bovine CuZn-SODs: bovine CuZn superoxide dismutase
anti-inflammatory activity after oral administration ([3]; administered orally, using liposomes or ceramides, rat leg oedema induced by carrageenan): reduction of rat leg oedema induced by carrageenan | anti-inflammatory activity in rats [3]: such an anti-inflammatory activity

B1: yeast CuZn-SODs: yeast CuZn superoxide dismutase (protein, UniProt P00445 2-154, looked up)
Superoxide dismutase [Cu-Zn]: VQAVAVLKGDAGVSGVVKFEQASESEPTTVSYEIAGNSPNAERGFHIHEFGDATNGCVSAGPHFNPFKKTHGAPTDEVRHVGDMGNVKTDENGVAKGSFKDSLIKLIGPTSVVGRSVVIHAGQDDLGKGDTEESLKTGNAGPRPACGVIGLTN
anti-inflammatory activity in rats [3]: pro-inflammatory activity

B2: recombinant SOD: recombinant Cucumis melo CuZn superoxide dismutase (pseudo-cytosolic form) expressed in E. coli, His-tag cleaved, refolded (protein)
chain: MVKAVAVLKGTSDVEGVVTLTQEDDGPTSVNVRITGLTPGPHGFHLHEFGDTTNGCISTGAHFNPNKLTHGAPEDEIRHAGDLGNIIANADGVAEATIVDNQIPLSGPNSVVGRAFVVHELADDLGKGGHELSLTTGNAGGRLACGVVGLTPV
modifications: Cucumis melo
prevention of X/XO-induced apoptotic pathway [4]: 71% | toxic effect on HT-29 proliferation curves [2]: neither SOD nor Gli-SOD exert any toxic effect | dose that does not modify growth of the HT-29 cell line ([2]; 48 hours): 10 units | inhibition of orexin-induced apoptosis [5]: 26% | rate of orexin-induced apoptosis [5]: 34.4% | inhibition of basal apoptosis [6]: 12.2% | rate of basal apoptosis (annexin V positive cells) [6]: 18% | presence of SOD in the vicinity of the cells (FITC fluorescence) [7]: clearly visible

B3: human Mn-SOD: human manganese superoxide dismutase (protein, UniProt P04179 25-222, looked up)
Superoxide dismutase [Mn], …: KHSLPDLPYDYGALEPHINAQIMQLHHSKHHAAYVNNLNVTEEKYQEALAKGDVTAQIALQPALKFNGGGHINHSIFWTNLSPNGGGEPKGELLEAIKRDFGSFDKFKEKLTAASVGVQGSGWGWLGFNKERGHLQIAACPNQDPLQGTTGLIPLLGIDVWEHAYYLQYKNVRPDYLKAIWNVINWENVTERYMACKK
anti-inflammatory activity in rats [3]: no anti-inflammatory activity

B4: recombinant Gli-SOD: recombinant melon CuZn SOD fused at its N-terminal part to A-gliadin peptide QQPYPQPQPF (peptide 982) (protein)
chain: QQPYPQPQPFMVKAVAVLKGTSDVEGVVTLTQEDDGPTSVNVRITGLTPGPHGFHLHEFGDTTNGCISTGAHFNPNKLTHGAPEDEIRHAGDLGNIIANADGVAEATIVDNQIPLSGPNSVVGRAFVVHELADDLGKGGHELSLTTGNAGGRLACGVVGLTPV
modifications: Cucumis melo
prevention of X/XO-induced apoptotic pathway [4]: 86% | "peptide effect" on HT-29 proliferation at 24 hours ([2]; 10 units SOD coupled to or associated with 10 μM peptide 982): no “peptide effect” at 24 hours of culture | toxic effect on HT-29 proliferation curves [2]: neither SOD nor Gli-SOD exert any toxic effect | dose that does not modify growth of the HT-29 cell line ([2]; 48 hours): 5 units | inhibition of orexin-induced apoptosis [5]: 54.7% | rate of orexin-induced apoptosis [5]: 28.7% | inhibition of basal apoptosis [6]: 18.1% | rate of basal apoptosis (annexin V positive cells) [6]: 16.8% | presence of SOD in the vicinity of the cells (FITC fluorescence) [7]: apparently to a greater extent

B5: biosynthetic tomato cytosolic SODs: recombinant Lycopersicon esculentum cytosolic CuZn-SOD expressed in bacteria (protein, listed as Lycopersicon esculentum)
chain: MVKAVAVLNSSEGVSGTILFTQDGDAPTTVNGNISGLKPGLHGFHVHALGDTTNGCMSTGPHYNPAGKEHGAPEDEVRHAGDLGNITVGEDGTASFTITDKQIPLTGPQSIIGRAVVVHADPDDLGKGGHELSKSTGNAGGRIACGIIGLQG
activity of biosynthetic SOD expressed in the applicant's bacterial system [1]: a lot less active
